Source: paper PMC9606253

Tests used:
[1] = biological target: SMARCA4 (mouse (endogenous in mouse brain)) (UniProt Q3TKT4); experiment: co-IP; three successive immunodepletions of adult Brwd1^FLAG-HA brain nuclear extract with antibodies to SMARCA4 or SS18L1 or IgG; signal left in the final flow-through by blot densitometry, normalised to IgG
[2] = biological target: SS18L1 (mouse (endogenous in mouse brain)) (UniProt Q8BW22); experiment: as above
[3] = biological target: SS18 (mouse (endogenous in mouse brain)) (UniProt Q62280); experiment: co-IP; three successive immunodepletions of E17.5 Brwd1^FLAG-HA brain nuclear extract with antibodies to SMARCA4, SS18 or SS18L1 or IgG; signal left in the final flow-through by blot densitometry, normalised to IgG
Chain of SS18 (mouse (endogenous in mouse brain)) (Q62280 whole entry): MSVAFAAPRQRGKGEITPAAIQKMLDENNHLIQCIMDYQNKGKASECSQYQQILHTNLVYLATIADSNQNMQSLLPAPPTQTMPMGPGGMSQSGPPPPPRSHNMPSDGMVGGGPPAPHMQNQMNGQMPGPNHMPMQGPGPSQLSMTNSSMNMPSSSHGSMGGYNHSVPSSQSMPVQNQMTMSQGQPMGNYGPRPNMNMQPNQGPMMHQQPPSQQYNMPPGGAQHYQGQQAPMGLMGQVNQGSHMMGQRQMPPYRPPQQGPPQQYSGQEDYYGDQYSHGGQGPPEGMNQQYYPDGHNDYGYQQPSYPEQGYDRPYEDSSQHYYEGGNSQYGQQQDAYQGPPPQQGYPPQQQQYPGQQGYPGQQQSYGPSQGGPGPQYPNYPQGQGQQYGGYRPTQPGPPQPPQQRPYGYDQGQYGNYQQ

[4] = biological target: SMARCA4 (mouse (endogenous in mouse brain)) (UniProt Q3TKT4); experiment: co-IP; brain nuclear extract partially denatured with 0, 0.25, 0.5, 1, 2 or 4 M urea (15 min, room temperature), dialysed, then IP with anti-SMARCA4 (BRG1 H-10) or mouse IgG; bound protein normalised to immunoprecipitated SMARCA4 (n = 3)

Chain of BRWD1-FLAG-HA, Q921C3 1-2304 (natural protein) (Q921C3 whole entry): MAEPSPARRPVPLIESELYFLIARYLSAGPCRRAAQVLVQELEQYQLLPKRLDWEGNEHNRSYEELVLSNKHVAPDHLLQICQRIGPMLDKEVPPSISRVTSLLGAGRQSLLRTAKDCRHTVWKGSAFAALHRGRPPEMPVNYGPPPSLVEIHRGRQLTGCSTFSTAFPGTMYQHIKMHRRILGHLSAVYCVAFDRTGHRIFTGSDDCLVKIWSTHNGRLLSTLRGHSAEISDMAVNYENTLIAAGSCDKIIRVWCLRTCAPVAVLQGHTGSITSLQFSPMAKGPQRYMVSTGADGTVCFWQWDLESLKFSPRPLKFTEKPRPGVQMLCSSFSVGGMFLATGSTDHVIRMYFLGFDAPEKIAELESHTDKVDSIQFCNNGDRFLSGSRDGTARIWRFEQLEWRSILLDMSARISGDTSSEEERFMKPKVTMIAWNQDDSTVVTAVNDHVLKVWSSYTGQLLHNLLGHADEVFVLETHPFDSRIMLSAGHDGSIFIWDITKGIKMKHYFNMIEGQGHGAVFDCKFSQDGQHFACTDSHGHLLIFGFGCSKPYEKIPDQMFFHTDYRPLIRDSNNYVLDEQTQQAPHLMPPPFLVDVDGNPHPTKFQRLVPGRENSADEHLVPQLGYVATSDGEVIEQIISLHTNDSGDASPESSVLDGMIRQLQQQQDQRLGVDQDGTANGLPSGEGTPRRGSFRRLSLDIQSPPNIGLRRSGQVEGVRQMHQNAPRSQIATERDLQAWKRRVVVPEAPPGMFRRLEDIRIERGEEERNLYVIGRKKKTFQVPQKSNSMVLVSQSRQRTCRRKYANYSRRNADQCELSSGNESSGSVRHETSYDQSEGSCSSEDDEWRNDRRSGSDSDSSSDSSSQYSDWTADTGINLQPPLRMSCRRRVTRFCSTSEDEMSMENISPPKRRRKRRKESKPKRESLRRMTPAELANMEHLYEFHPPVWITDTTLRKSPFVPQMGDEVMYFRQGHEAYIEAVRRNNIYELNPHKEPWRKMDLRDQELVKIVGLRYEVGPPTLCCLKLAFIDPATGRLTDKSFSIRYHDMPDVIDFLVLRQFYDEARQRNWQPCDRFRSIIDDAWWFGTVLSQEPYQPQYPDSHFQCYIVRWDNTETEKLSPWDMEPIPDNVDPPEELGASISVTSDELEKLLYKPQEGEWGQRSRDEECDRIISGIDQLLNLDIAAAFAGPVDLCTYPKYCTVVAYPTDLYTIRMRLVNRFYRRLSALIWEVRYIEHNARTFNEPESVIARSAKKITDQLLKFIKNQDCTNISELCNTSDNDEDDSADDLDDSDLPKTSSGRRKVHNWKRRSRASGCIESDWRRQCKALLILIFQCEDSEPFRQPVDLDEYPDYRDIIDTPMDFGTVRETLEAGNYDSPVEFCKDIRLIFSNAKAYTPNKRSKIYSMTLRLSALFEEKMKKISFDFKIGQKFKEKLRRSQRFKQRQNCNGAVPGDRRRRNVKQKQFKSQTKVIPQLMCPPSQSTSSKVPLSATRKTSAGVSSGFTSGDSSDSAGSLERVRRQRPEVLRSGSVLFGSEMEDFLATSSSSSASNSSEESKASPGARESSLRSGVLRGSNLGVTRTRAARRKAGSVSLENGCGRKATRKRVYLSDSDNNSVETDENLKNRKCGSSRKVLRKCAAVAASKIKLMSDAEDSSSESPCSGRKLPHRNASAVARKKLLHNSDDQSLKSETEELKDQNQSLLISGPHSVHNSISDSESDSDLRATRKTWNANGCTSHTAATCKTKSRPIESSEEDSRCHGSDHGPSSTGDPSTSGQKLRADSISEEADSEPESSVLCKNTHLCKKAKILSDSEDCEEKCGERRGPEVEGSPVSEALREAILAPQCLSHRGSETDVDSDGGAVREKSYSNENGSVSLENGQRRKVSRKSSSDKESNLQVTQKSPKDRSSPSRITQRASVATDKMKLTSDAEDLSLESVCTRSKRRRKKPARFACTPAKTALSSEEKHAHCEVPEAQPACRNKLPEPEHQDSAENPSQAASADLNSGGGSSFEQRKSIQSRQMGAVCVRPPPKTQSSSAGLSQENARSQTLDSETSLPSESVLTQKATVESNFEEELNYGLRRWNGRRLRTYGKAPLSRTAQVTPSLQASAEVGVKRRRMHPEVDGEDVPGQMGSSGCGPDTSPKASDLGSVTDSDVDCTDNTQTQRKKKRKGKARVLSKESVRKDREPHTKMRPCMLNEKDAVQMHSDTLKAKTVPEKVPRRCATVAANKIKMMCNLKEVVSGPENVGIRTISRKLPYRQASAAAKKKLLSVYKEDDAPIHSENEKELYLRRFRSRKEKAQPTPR
Chain of SMARCA4 (mouse (endogenous in mouse brain)) (Q3TKT4 whole entry): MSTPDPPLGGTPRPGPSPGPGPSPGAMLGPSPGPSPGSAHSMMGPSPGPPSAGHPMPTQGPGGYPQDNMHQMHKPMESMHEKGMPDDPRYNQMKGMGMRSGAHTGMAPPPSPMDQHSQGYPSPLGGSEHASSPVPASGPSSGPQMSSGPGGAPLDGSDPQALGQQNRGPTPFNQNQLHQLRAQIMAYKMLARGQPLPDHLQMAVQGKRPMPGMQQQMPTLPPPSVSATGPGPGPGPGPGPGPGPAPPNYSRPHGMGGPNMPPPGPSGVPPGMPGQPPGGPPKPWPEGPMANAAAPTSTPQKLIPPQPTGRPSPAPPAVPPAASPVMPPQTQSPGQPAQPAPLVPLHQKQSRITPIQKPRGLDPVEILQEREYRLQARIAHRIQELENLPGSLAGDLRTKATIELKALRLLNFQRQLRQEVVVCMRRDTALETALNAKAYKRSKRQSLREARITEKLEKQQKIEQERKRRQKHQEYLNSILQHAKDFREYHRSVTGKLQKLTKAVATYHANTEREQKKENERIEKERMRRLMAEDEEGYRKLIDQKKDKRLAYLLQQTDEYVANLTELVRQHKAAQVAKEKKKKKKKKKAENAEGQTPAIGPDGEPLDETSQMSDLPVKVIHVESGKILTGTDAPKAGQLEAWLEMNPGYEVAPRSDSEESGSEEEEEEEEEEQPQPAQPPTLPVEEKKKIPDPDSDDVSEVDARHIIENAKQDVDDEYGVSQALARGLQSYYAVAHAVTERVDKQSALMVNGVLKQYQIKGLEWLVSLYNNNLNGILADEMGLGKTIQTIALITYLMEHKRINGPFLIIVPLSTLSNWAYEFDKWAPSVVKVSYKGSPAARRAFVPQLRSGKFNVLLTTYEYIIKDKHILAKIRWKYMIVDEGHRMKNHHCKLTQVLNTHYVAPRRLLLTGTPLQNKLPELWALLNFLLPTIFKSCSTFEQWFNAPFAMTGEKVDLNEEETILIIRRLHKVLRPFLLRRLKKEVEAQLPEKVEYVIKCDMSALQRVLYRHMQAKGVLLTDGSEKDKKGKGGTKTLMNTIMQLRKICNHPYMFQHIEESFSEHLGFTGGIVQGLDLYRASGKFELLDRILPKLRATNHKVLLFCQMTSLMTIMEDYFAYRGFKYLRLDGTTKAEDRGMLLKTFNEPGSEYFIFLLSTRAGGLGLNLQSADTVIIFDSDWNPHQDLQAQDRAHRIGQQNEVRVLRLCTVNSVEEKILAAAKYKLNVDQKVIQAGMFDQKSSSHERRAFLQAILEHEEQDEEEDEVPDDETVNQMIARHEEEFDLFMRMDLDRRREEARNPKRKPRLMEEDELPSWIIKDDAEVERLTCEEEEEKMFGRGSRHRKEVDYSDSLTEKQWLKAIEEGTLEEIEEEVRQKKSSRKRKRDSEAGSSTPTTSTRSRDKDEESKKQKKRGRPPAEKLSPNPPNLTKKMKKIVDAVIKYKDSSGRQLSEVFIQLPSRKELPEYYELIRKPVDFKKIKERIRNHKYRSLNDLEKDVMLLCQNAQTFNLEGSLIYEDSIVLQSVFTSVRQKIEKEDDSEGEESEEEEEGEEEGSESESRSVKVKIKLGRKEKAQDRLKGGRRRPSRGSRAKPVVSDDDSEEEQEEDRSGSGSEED
Chain of SS18L1 (mouse (endogenous in mouse brain)) (Q8BW22 whole entry): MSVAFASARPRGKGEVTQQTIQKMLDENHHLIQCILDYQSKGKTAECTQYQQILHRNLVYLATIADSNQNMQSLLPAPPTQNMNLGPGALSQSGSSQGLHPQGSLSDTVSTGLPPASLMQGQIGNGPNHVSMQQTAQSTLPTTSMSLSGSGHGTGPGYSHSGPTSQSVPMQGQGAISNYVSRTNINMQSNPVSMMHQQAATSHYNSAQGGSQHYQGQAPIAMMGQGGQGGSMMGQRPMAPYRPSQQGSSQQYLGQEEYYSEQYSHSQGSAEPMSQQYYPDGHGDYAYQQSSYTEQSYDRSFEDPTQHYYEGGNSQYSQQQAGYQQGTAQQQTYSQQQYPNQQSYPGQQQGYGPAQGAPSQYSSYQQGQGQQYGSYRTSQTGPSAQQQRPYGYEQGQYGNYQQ

percent co-depleted [1]: 20%
percent co-depleted [2]: 20%
percent co-depleted [3]: 20%
percent destabilized in 0.5 M urea [4]: 60%
percent remaining bound through 4 M urea [4]: 40%
Substance: BRWD1-FLAG-HA, Q921C3 1-2304 (natural protein)
